Literature values in article PMC6653659.
pKd: −log10 of the molar value.

Target: glucocorticoid receptor LBD (Homo sapiens) (UniProt P04150)

Substance: glucocorticoid receptor LBD (from UniProt P04150)
- pKd: 5.82
